# Publication PMC12079483 (2025)
# Columns and labels:
# [1] = target: D20-20K (IL-2 with 20K PEG conjugated at Asp20) (UniProt P60568 21-153, D20 to NAEK, Nε-2-azideoethyloxycarbonyl-L-lysine (NAEK) at position 20, conjugated with DBCO-tethered PEG of 20 kDa by copper-free click reaction); assay: SPR
# [2] = target: Y45-20K (IL-2 with 20K PEG conjugated at Tyr45) (UniProt P60568 21-153, Y45 to NAEK, Nε-2-azideoethyloxycarbonyl-L-lysine (NAEK) at position 45, conjugated with DBCO-tethered PEG of 20 kDa by copper-free click reaction); assay: SPR
Binder,Kd [1] [nM],Kd [2] [nM]
extracellular domains of the dimeric IL-2 receptor (IL-2Rβγ) (complex) chain 1: AVNGTSQFTCFYNSRANISCVWSQDGALQDTSCQVHAWPDRRRWNQTCELLPVSQASWACNLILGAPDSQKLTTVDIVTLRVLCREGVRWRVMAIQDFKPFENLRLMAPISLQVVHVETHRCNISWEISQASHYFERHLEFEARTLSPGHTWEEAPLLTLKQKQEWICLETLTPDTQYEFQVRVKPLQGEFTTWSPWSQPLAFRTKPAALGKDT chain 2: LNTTILTPNGNEDTTADFFLTTMPTDSLSVSTLPLPEVQCFVFNVEYMNCTWNSSSEPQPTNLTLHYWYKNSDNDKVQKCSHYLFSEEITSGCQLQKKEIHLYQTFVVQLQDPREPRRQATQMLKLQNLVIPWAPENLTLHKLSESQLELNWNNRFLNHCLEHLVQYRTDWDHSWTEQSVDYRHKFSLPSVDGQKRYTFRVRSRFNPLCGSAQHWSEWSHPIHWGSNTSKENPFLFALEA,,32.8
"extracellular domain of the IL-2 receptor α chain (IL-2Rα, CD25) (receptor) ELCDDDPPEIPHATFKAMAYKEGTMLNCECKRGFRRIKSGSLYMLCTGNSSHSSWDNQCQCTSSATRNTTKQVTPQPEEQKERKTTEMQSPMQPVDQASLPGHCREPPPWENEATERIYHFVVGQMVYYQCVQGYRALHRGPAESVCKMTHGKTRWTQPQLICTGEMETSQFPGEEKPQASPEGRPESETSCLVTTTDFQIQTEMAATMETSIFTTEYQ",99.9,

# Second part, the binder after the results:
Kd [1] [nM],Kd [2] [nM],Binder
58.1,,extracellular domains of the trimeric IL-2 receptor (IL-2Rαβγ) (complex) chain 1: ELCDDDPPEIPHATFKAMAYKEGTMLNCECKRGFRRIKSGSLYMLCTGNSSHSSWDNQCQCTSSATRNTTKQVTPQPEEQKERKTTEMQSPMQPVDQASLPGHCREPPPWENEATERIYHFVVGQMVYYQCVQGYRALHRGPAESVCKMTHGKTRWTQPQLICTGEMETSQFPGEEKPQASPEGRPESETSCLVTTTDFQIQTEMAATMETSIFTTEYQ chain 2: AVNGTSQFTCFYNSRANISCVWSQDGALQDTSCQVHAWPDRRRWNQTCELLPVSQASWACNLILGAPDSQKLTTVDIVTLRVLCREGVRWRVMAIQDFKPFENLRLMAPISLQVVHVETHRCNISWEISQASHYFERHLEFEARTLSPGHTWEEAPLLTLKQKQEWICLETLTPDTQYEFQVRVKPLQGEFTTWSPWSQPLAFRTKPAALGKDT chain 3: LNTTILTPNGNEDTTADFFLTTMPTDSLSVSTLPLPEVQCFVFNVEYMNCTWNSSSEPQPTNLTLHYWYKNSDNDKVQKCSHYLFSEEITSGCQLQKKEIHLYQTFVVQLQDPREPRRQATQMLKLQNLVIPWAPENLTLHKLSESQLELNWNNRFLNHCLEHLVQYRTDWDHSWTEQSVDYRHKFSLPSVDGQKRYTFRVRSRFNPLCGSAQHWSEWSHPIHWGSNTSKENPFLFALEA
,690,extracellular domain of the IL-2 receptor β chain (IL-2Rβ) (receptor) AVNGTSQFTCFYNSRANISCVWSQDGALQDTSCQVHAWPDRRRWNQTCELLPVSQASWACNLILGAPDSQKLTTVDIVTLRVLCREGVRWRVMAIQDFKPFENLRLMAPISLQVVHVETHRCNISWEISQASHYFERHLEFEARTLSPGHTWEEAPLLTLKQKQEWICLETLTPDTQYEFQVRVKPLQGEFTTWSPWSQPLAFRTKPAALGKDT
